B1: Tyrosine-protein kinase YwqD (Bacillus subtilis), P96716 (parent)
chain: MALRKNRGSRMQRNVIAMTEPKSLNSEQYRTIRTNIEFASVDRQMKSVMITSACPGEGKSTTAANLAVVFAQQGKKVLLIDADLRKPTVHTAFFLENTVGLTSVLLKKSSMEQAVQASNEKHLDVLTSGPIPPNPAELLSSKWMKELAYEACAAYDMVIFDTPPILAVADAQILGNVADGSVLVISSGKTEKEQAAKAKEALATCKSKLLGAIMNGKKLSKHSEYGYYGTKDNFMQK
partner: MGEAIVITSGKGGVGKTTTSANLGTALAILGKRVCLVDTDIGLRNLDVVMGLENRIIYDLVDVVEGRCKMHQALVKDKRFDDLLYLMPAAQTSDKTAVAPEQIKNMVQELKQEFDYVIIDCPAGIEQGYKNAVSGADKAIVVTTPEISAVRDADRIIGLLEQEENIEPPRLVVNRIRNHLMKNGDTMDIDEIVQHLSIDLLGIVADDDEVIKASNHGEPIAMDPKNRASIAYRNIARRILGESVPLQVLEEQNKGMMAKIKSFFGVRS

Variants of: B1
Conditions: with mind_bacsu minD

Variant	effect of a mutation on the interaction
D81A	decreasing interaction strength
K59M	disrupting interaction strength

Source: IntAct's records for PubMed 25374563
